In general, Kd refers to a measure of binding affinity in units of concentration. As a reminder, the koff is a measure of how fast the partners let go of each other. By kon is commonly meant the rate constant with which the complex forms.

Consider one molecule from patent US20050048070A1 (published 2005).

For one test, the target named is T1, K8 (1-342).
T1 construct: not shown: N-terminal GST and its linker (modified pGEX-2T)
T1 chain: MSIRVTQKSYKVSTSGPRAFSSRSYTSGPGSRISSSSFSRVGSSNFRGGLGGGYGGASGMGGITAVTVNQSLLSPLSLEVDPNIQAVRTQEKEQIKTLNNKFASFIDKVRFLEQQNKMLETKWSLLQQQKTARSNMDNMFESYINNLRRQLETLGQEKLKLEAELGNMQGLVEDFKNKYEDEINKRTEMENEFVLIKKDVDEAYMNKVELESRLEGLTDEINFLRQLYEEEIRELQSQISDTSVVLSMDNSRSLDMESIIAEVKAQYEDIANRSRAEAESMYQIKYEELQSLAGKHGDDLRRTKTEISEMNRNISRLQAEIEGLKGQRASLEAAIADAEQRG
In words: Western blot of SDS-PAGE-separated K8 GST fusion proteins, stained with COU-1 alone. A general note: In western blotting, separated proteins are transferred to a membrane and probed.

For a further test, the target named is T2, K8 (1-403).
T2 construct: not shown: N-terminal GST and its linker (modified pGEX-2T)
T2 chain: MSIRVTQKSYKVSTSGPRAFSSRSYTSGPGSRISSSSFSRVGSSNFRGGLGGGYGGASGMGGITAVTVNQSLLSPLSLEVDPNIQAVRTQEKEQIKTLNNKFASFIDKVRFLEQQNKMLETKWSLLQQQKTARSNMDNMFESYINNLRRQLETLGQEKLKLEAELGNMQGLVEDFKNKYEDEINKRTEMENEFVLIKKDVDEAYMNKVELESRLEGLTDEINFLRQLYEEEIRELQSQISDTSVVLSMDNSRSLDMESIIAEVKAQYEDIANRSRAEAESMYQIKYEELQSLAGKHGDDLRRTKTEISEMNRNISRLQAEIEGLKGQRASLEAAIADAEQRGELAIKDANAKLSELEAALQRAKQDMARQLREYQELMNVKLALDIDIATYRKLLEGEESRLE
Described as above.

The target in test [1] is T3, recombinant intact K8 (GST fusion protein) (human, UniProt P05787 2-483).
T3 construct: Alone, not complexed with K18; GST placed first as in pGEX vectors; also called full length K8; cytokeratin 8; not shown: glutathione S-transferase (GST) fusion partner, modified pGEX-2T vector
T3 chain: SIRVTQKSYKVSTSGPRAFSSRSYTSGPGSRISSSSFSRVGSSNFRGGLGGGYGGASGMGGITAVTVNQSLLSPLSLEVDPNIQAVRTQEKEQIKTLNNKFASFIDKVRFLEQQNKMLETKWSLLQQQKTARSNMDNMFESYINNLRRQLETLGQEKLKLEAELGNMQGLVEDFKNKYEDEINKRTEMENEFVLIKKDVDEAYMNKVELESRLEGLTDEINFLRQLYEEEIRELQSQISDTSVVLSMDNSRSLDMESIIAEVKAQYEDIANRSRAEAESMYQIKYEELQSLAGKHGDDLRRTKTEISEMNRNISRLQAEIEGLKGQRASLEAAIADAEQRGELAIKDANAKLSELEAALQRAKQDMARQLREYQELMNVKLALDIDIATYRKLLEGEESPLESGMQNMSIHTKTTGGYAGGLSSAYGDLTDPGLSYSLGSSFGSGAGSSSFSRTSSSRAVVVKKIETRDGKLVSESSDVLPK
The description is as above.

A further test has as its target T4, K8 (1-352).
T4 construct: not shown: N-terminal GST and its linker (modified pGEX-2T)
T4 chain: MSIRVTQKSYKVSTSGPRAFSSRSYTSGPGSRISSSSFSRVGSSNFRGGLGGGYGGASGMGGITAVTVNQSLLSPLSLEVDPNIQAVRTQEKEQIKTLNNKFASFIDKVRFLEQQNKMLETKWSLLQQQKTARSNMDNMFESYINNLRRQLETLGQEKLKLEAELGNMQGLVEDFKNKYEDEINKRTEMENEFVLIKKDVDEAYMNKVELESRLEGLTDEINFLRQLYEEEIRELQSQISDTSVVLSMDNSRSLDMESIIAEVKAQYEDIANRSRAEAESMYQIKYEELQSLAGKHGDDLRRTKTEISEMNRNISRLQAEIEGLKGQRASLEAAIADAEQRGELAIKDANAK
The test is described as above.

Test [2] has as its target T5, intact K8/intact K18 heterotypic complex (recombinant GST fusion proteins) (human, UniProt P05787 2-483; P05783 2-430).
T5 construct: Heterotypic complex of two GST fusion proteins; also called intact K8/K18 complex; not shown: glutathione S-transferase (GST) fusion partner, modified pGEX-2T vector
T5 chain 1: T3 chain
T5 chain 2: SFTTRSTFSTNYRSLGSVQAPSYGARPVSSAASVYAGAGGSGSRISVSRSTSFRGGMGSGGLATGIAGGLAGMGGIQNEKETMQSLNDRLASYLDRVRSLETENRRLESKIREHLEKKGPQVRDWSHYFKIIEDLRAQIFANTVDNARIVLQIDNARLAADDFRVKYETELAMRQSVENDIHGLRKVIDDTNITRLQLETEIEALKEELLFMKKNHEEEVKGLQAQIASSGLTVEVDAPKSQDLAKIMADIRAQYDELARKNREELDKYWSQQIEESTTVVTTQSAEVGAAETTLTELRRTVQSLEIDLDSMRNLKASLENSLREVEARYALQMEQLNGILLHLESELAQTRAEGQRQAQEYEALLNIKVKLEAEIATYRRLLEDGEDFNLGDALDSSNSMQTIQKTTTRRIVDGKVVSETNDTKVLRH
In words: SPR (BIAcore), complex immobilized, COU-1 injected. Background: In SPR one partner is held on a chip, and binding of the other changes the refractive index at the surface.

The target in test [3] is T6, K18(1-65) GST fusion protein (human, UniProt P05783 2-66).
T6 construct: Alone, not complexed; not shown: glutathione S-transferase (GST) fusion partner, modified pGEX-2T vector
T6 sequence: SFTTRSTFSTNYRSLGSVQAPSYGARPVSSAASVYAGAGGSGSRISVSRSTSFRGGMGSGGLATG
In words: Western blot of SDS-PAGE-separated GST fusion proteins.

B1: human monoclonal IgM antibody COU-1 (antibody, V domains shown)
VH: GAEVKKPGASVKVSCKASDYTFSSYYMHWVRQAPGQGLEWMGIINPSGGSTSYAQKFQGRVTMTRDTSTNTVYMELSSLRSEDTAVYYCARDQVVVAATLSNYGMDVWGQGTTVTVSS
VL: ELTQSPGTLSLSPGERATLSCRASQSVSSSYLAWYQQKPGQAPRLLIYDASNRATGIPARFSGSGSGTDFTLTISSLEPEDFAVYYCQQGTNWGIAFGQGTRLDIKR
notes: Human IgM with kappa light chain, secreted by hybridoma B9165 (ECACC 87040201), purified from culture supernatant; also called HMab COU-1; HuMab COU-1
For B1, the binding result in the test with K8 (1-342) was “no binding (tested: 5 µg/ml COU-1 (P-0279))”. Moreover, in the test with K8 (1-403), the binding result is “no binding (tested: 5 µg/ml COU-1 (P-0279))”. In test [1], the binding result is “no binding (tested: 5 µg/ml COU-1 (P-0279))”. In the test with K8 (1-352), the binding result is on record as “no binding (tested: 5 µg/ml COU-1 (P-0279))”. Also, in test [2], the Ka turned out to be 1.8e+07 M⁻¹, the Kd was 55 nM, the “fold lower binding than to the truncated complexes” value is approximately 100 fold and the koff amounted to 0.0005 s⁻¹. Further, in test [2], the kon turned out to be 9100 M⁻¹ s⁻¹. Moreover, in test [3], the binding result is recorded as “no binding (tested: COU-1 5 µg/ml)”.
